Values joined by “and” are separate entries in the source; they are usually repeats but may differ in a detail not shown here. Equal values may be shown once.
Conditions: whole UniProt chain shown
[1] = Escherichia coli (strain K12), pH 7, 27 °C, Urea, Fluorescence, Potassium phosphate 50 mM, transition: 3, reversible: yes
[2] = Escherichia coli (strain K12), pH 7, 25 °C, Thermal, DSC, tetra-borate 1 mM, reversible: yes(70-95%)
[3] = Escherichia coli (strain K12), pH 7, Thermal, CD, tetra-borate 1 mM, reversible: yes(70-95%)
[4] = Escherichia coli (strain K12), pH 7, Thermal, DSC, tetra-borate 1 mM, reversible: yes(70-95%)
[5] = Escherichia coli (strain K12), pH 7.8, 25 °C, Urea, CD, Potassium phosphate 10 mM, transition: 3
[6] = Escherichia coli (strain K12), pH 7.8, 25 °C, Urea, CD, Potassium phosphate 10 mM
[7] = Escherichia coli (strain K12), pH 9.3, 25 °C, Thermal, DSC, tetra-borate 1 mM, reversible: yes(70-95%)
[8] = Escherichia coli (strain K12), pH 9.3, Thermal, CD, tetra-borate 1 mM, reversible: yes(70-95%)
[9] = Escherichia coli (strain K12), pH 9.3, Thermal, DSC, tetra-borate 1 mM, reversible: yes(70-95%)
[10] = Erythrina corallodendron, pH 7.4, Thermal, DSC, Sodium phosphate 0.02 M, NaCl 0.15 M, reversible: yes
[11] = Dictyostelium discoideum, pH 7.5, Thermal, DSC, HEPES-NaOH 50 mM, reversible: no
[12] = Dictyostelium discoideum, pH 7.5, Thermal, DSC, HEPES-NaOH 50 mM, transition: 3, reversible: no
[13] = Dictyostelium discoideum, pH 7.5, Thermal, DSC, HEPES-NaOH 50 mM, transition: 3, reversible: yes
[14] = Dictyostelium discoideum, pH 8, 25 °C, Urea, Absorbance, Tris-acetate 83 mM, reversible: yes
[15] = Escherichia coli (strain K12), pH 7, 25 °C, Thermal, DSC, Potassium phosphate 25 mM, KCl 100 mM, reversible: yes
[16] = Escherichia coli (strain K12), pH 7, Thermal, DSC, Potassium phosphate 25 mM, KCl 100 mM, reversible: yes

B1: 3-isopropylmalate dehydrogenase wild type, P30125 (protein)
chain: MSKNYHIAVLPGDGIGPEVMTQALKVLDAVRNRFAMRITTSHYDVGGAAIDNHGQPLPPATVEGCEQADAVLFGSVGGPKWEHLPPDQQPERGALLPLRKHFKLFSNLRPAKLYQGLEAFCPLRADIAANGFDILCVRELTGGIYFGQPKGREGSGQYEKAFDTEVYHRFEIERIARIAFESARKRRHKVTSIDKANVLQSSILWREIVNEIATEYPDVELAHMYIDNATMQLIKDPSQFDVLLCSNLFGDILSDECAMITGSMGMLPSASLNEQGFGLYEPAGGSAPDIAGKNIANPIAQILSLALLLRYSLDADDAACAIERAINRALEEGIRTGDLARGAAAVSTDEMGDIIARYVAEGV
denaturant m value [1]: 5.56 kcal/mol/M and 2.22 kcal/mol/M
unfolding free energy [1]: 14.7 kcal/mol and 17.7 kcal/mol
unfolding enthalpy (van 't Hoff) (Escherichia coli (strain K12), pH 7, Thermal, Fluorescence, potassium phosphate 50 mM, DTT 1 mM, transition: 3, reversible: yes): 15.4 kcal/mol and 17.8 kcal/mol

B2: Tryptophan synthase alpha chain wild type, P0A877 (protein)
chain: MERYESLFAQLKERKEGAFVPFVTLGDPGIEQSLKIIDTLIEAGADALELGIPFSDPLADGPTIQNATLRAFAAGVTPAQCFEMLALIRQKHPTIPIGLLMYANLVFNKGIDEFYAQCEKVGVDSVLVADVPVEESAPFRQAALRHNVAPIFICPPNADDDLLRQIASYGRGYTYLLSRAGVTGAENRAALPLNHLVAKLKEYNAAPPLQGFGISAPDQVKAAIDAGAAGAISGSAIVKIIEQHINEPEKMLAALKVFVQPMKAATRS
unfolding free energy (Escherichia coli (strain K12), pH 7, 25 °C, GdnHCl, CD, Potassium phosphate 0.01 M, reversible: yes): 9.3 kcal/mol
unfolding free energy (Escherichia coli (strain K12), pH 7, 25 °C, Thermal, CD, tetra-borate 1 mM, reversible: yes(70-95%)): 6.7 kcal/mol
unfolding enthalpy (calorimetric) [2]: 23.2 kcal/mol
unfolding free energy [2]: 8.4 kcal/mol
unfolding free energy (Escherichia coli (strain K12), pH 7, 25.8 °C, GdnHCl, CD, Potassium phosphate 0.01 M, reversible: yes): 8.8 kcal/mol
Tm [3]: 61.2 °C
heat capacity change of unfolding [3]: 2.45 kcal/mol/K
unfolding enthalpy (van 't Hoff) [3]: 19.7 kcal/mol
Tm [4]: 62.4 °C
heat capacity change of unfolding [4]: 2.87 kcal/mol/K
denaturant m value [5]: 2.9 kcal/mol/M and 1.3 kcal/mol/M
unfolding free energy [5]: 7.9 kcal/mol and 5.4 kcal/mol
denaturant m value [6]: 2.23 kcal/mol/M
unfolding free energy [6]: 5.91 kcal/mol
unfolding free energy (Escherichia coli (strain K12), pH 9.3, 25 °C, Thermal, CD, tetra-borate 1 mM, reversible: yes(70-95%)): 3.9 kcal/mol
unfolding enthalpy (calorimetric) [7]: 23.2 kcal/mol
unfolding free energy [7]: 5.8 kcal/mol
Tm [8]: 50.4 °C
heat capacity change of unfolding [8]: 2.45 kcal/mol/K
unfolding enthalpy (van 't Hoff) [8]: 19.7 kcal/mol
Tm [9]: 54.3 °C
heat capacity change of unfolding [9]: 2.87 kcal/mol/K

B3: Lectin wild type, P16404 (protein)
chain: MATYKLCSVLALSLTLFLLILNKVNSVETISFSFSEFEPGNDNLTLQGAALITQSGVLQLTKINQNGMPAWDSTGRTLYAKPVHIWDMTTGTVASFETRFSFSIEQPYTRPLPADGLVFFMGPTKSKPAQGYGYLGIFNNSKQDNSYQTLGVEFDTFSNPWDPPQVPHIGIDVNSIRSIKTQPFQLDNGQVANVVIKYDASSKILHAVLVYPSSGAIYTIAEIVDVKQVLPEWVDVGLSGATGAQRDAAETHDVYSWSFQASLPETNDAVIPTSNHNTFAI
Tm [10]: 61.7 °C
unfolding enthalpy (calorimetric) [10]: 320 kcal/mol
unfolding enthalpy (van 't Hoff) [10]: 151 kcal/mol

B4: Nucleoside diphosphate kinase, mitochondrial wild type, P34093 (protein)
chain: MFSRFARAFPKILASGASQRTFATVQKAFANPTSKKLIVGSSLLIGSAFATTSFVACENKSVPLVGLPGTNQERSFIAIKVSSTQRRLIGEIIARFEKKGFKLVGIKILVPTPEHAAKHYEDLNKKPFFNGLVKFFSSGAVVAMVFEGKDVVRTGRVLIGATDPSQSAPGTIRFDLCIETGRNIIHGSDSNESAAHEIALWFKEDEIANWVSTNPVYEKM
Tm [11]: 61.8 °C
unfolding enthalpy (calorimetric) [11]: 785 kcal/mol
Tm [12]: 55.7 °C
unfolding enthalpy (calorimetric) [12]: 319 kcal/mol
Tm [13]: 37.5 °C
unfolding enthalpy (calorimetric) [13]: 97 kcal/mol
denaturant m value [14]: 1.71 kcal/mol/M
unfolding free energy [14]: 5.42 kcal/mol

B5: Met repressor wild type, P0A8U6 (protein)
chain: MAEWSGEYISPYAEHGKKSEQVKKITVSIPLKVLKILTDERTRRQVNNLRHATNSELLCEAFLHAFTGQPLPDDADLRKERSDEIPEAAKEIMREMGINPETWEY
heat capacity change of unfolding [15]: 2.13 kcal/mol/K
unfolding free energy [15]: 7.77 kcal/mol
Tm [16]: 53.2 °C
heat capacity change of unfolding [16]: 2.13 kcal/mol/K
unfolding enthalpy (calorimetric) [16]: 121 kcal/mol
unfolding enthalpy (van 't Hoff) [16]: 131 kcal/mol

Reference: FireProtDB
